Experimental data as given in article PMC7796288.

Target: Pomacea bridgesii metallothionein 2 (PbrMT2), recombinant Cd(II)-loaded preparation (Pomacea bridgesii)
Test: native MS; ESI-TOF MS at neutral pH (7.0), running buffer 5:95 acetonitrile:ammonium acetate (15 mM); Cd-PbrMT2 production from a CdCl2-supplemented culture; dimeric species seen together with monomeric Cd8- and Cd9- species

stoichiometry N: 2
Substance: Pomacea bridgesii metallothionein 2 (PbrMT2), recombinant Cd(II)-loaded preparation (natural protein)
